Molecular target: T1, CysLTR2-GFP10-1D4 L129Q (human, UniProt Q9NS75 1-346, L129Q)
T1 sequence (looked up): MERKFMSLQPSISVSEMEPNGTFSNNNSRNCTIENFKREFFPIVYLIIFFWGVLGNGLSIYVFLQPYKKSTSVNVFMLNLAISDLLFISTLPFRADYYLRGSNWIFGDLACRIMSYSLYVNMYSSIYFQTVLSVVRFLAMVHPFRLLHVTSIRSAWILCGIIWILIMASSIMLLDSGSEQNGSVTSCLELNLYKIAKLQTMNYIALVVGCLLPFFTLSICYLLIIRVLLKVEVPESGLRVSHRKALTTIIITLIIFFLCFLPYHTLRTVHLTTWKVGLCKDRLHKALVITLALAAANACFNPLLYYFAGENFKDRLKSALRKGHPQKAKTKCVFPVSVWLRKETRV
Assay: FRET or BRET

ligand-independent net BRET^2 ratio: 0.00151 ± 0.0004
B1: β-Arrestin1-RLuc3 (natural protein, UniProt P49407 1-418, looked up)
chain: MGDKGTRVFKKASPNGKLTVYLGKRDFVDHIDLVDPVDGVVLVDPEYLKERRVYVTLTCAFRYGREDLDVLGLTFRKDLFVANVQSFPPAPEDKKPLTRLQERLIKKLGEHAYPFTFEIPPNLPCSVTLQPGPEDTGKACGVDYEVKAFCAENLEEKIHKRNSVRLVIRKVQYAPERPGPQPTAETTRQFLMSDKPLHLEASLDKEIYYHGEPISVNVHVTNNTNKTVKKIKISVRQYADICLFNTAQYKCPVAMEEADDTVAPSSTFCKVYTLTPFLANNREKRGLALDGKLKHEDTNLASSTLLREGANREILGIIVSYKVKVKLVVSRGGLLGDLASSDVAVELPFTLMHPKPKEEPPHREVPENETPVDTNLIELDTNDDDIVFEDFARQRLKGMKDDKEEEEDGTGSPQLNNR

— article doi:10.1101/663153 (bioRxiv, 2019)
